Patent US20230303994

B1: porcine trypsin variant S172A (SEQ ID NO: 2) (protein)
chain: IVGGYTCAANSIPYQVSLNSGSHFCGGSLINSQWVVSAAHCYKSRIQVRLGEHNIDVLEGNEQFINAAKIITHPNFNGNTLDNDIMLIKLSSPATLNSRVATVSLPRSCAAAGTECLISGWGNTKSSGSSYPSLLQCLKAPVLSDSSCKSSYPGQITGNMICVGFLEGGKDACQGDSGGPVVCNGQLQGIVSWGYGCAQKNKPGVYTKVCNYVNWIQQTIAAN
B2: trypsin variant SEQ ID NO: 36 (protein)
chain: IVGGYTCAANSIPYQVSLNSGSHRCGGSLINSQWVVSAAHCYKSRIQVRLGEHNIDVLEGNEQFINAAKIITHPNFNGNTLDNDIMLIKLSSPATLNSRVATVSLPRSCAAAGTECLISGWGNTKSSGSSMPSLLQCLKAPVLSDSSCKSSYPGQITGNMICVGFLEGGKDACQGDSGGPVVCNGQLQGIVSSGYGCAQKNKPGVYTKVCNYVNWIQQTIAAN
B3: trypsin variant SEQ ID NO: 41 (protein)
chain: IVGGYTCAANSIPYQVSLNSGSHRCGGSLINSQWVVSAAHCYKSRIQVRLGEHNIDVLEGNEQFINAAKIITHPNFNGNTLDNDIMLIKLSSPATLNSRVATVSLPRSCAAAGTECLISGWGNTKSSGSSHPSLLQCLKAPVLSDSSCKSSYPGQITGNMICVGFLEGGKDACQGDSGGPVVCNGQLQGIVSSGYGCAQKNKPGVYTKVCNYVNWIQQTIAAN
B4: trypsin variant SEQ ID NO: 18 (protein)
chain: IVGGYTCAANSIPYQVSLNSGSHRCGGSLINSQWVVSAAHCYKSRIQVRLGEHNIDVLEGNEQFINAAKIITHPNFNGNTLDNDIMLIKLSSPATLNSRVATVSLPRSCAAAGTECLISGWGNTSSSGSSYPSLLQCLKAPVLSDSSCKSSYPGQITGNMICVGFLEGGKDACQGDSGGPVVCNGQLQGIVSSGYGCAQKNKPGVYTKVCNYVNWIQQTIAAN
B5: trypsin variant SEQ ID NO: 119 (protein)
chain: IVGGYTCAANSIPYQVSLNSGSHRCGGSLINSQWVVSAAHCYKPRIQVRLGEHNIHVLEGNEQFINAAKIITHPNFNGNTLDNDIMLIKLSSPATLNSAVATVSLPTSCAAAGTECLISGWGNTASSGSSMPSLLQCLKAPVLSDSSCKSSYPGQITGNMICVGFLEGGKDACQGDSGGPVVCNGQLQGIVSSGYGCAQKNKPGVYTKVCNYVNWIQQTIAAN
B6: trypsin variant SEQ ID NO: 19 (protein)
chain: IVGGYTCAANSIPYQVSLNSGSHRCGGSLINSQWVVSAAHCYKSRIQVRLGEHNIDVLEGNEQFINAAKIITHPNFNGNTLDNDIMLIKLSSPATLNSRVATVSLPRSCAAAGTECLISGWGNTCSSGSSYPSLLQCLKAPVLSDSSCKSSYPGQITGNMICVGFLEGGKDACQGDSGGPVVCNGQLQGIVSSGYGCAQKNKPGVYTKVCNYVNWIQQTIAAN
B7: trypsin variant SEQ ID NO: 25 (protein)
chain: IVGGYTCAANSIPYQVSLNSGSHRCGGSLINSQWVVSAAHCYKSRIQVRLGEHNIDVLEGNEQFINAAKIITHPNFNGNTLDNDIMLIKLSSPATLNSRVATVSLPRSCAAAGTECLISGWGNTKSSGSSYPSLLQCLKAPVLSDSSCKSSYPGQITGNMICVGFLEGGADACQGDSGGPVVCNGQLQGIVSSGYGCAQKNKPGVYTKVCNYVNWIQQTIAAN
B8: trypsin variant SEQ ID NO: 14 (protein)
chain: IVGGYTCAANSIPYQVSLNSGSHRCGGSLINSQWVVSAAHCYKSRIQVRLGEHNIDVLEGNEQFINAAKIITHPNFNGNTLDNDIMLIKLSSPATLNSHVATVSLPRSCAAAGTECLISGWGNTKSSGSSYPSLLQCLKAPVLSDSSCKSSYPGQITGNMICVGFLEGGKDACQGDSGGPVVCNGQLQGIVSSGYGCAQKNKPGVYTKVCNYVNWIQQTIAAN
B9: trypsin variant SEQ ID NO: 24 (protein)
chain: IVGGYTCAANSIPYQVSLNSGSHRCGGSLINSQWVVSAAHCYKSRIQVRLGEHNIDVLEGNEQFINAAKIITHPNFNGNTLDNDIMLIKLSSPATLNSRVATVSLPRSCAAAGTECLISGWGNTKSSGSSYPSLLQCLKAPVLSDSSCKSSYPGQITGNMICVGFLEGGYDACQGDSGGPVVCNGQLQGIVSSGYGCAQKNKPGVYTKVCNYVNWIQQTIAAN
B10: trypsin variant SEQ ID NO: 4 (protein)
chain: IVGGYTCAANSIPYQVSLNSGSHRCGGSLINSQWVVSAAHCYKSRIQVRLGEHNIDVLEGNEQFINAAKIITHPNFNGNTLDNDIMLIKLSSPATLNSAVATVSLPRSCAAAGTECLISGWGNTKSSGSSYPSLLQCLKAPVLSDSSCKSSYPGQITGNMICVGFLEGGKDACQGDSGGPVVCNGQLQGIVSSGYGCAQKNKPGVYTKVCNYVNWIQQTIAAN

insulin glargine, P01308, sequence (P01308 whole entry, looked up): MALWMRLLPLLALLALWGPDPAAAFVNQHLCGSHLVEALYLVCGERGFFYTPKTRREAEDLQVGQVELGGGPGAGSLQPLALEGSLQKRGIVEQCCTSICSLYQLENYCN

Row | Protein | exopeptidase activity (insulin glargine, P01308) | Activity PPI cleavage (pre-pro-human insulin) | Selectivity (pre-pro-human insulin) | Purity Insulin Glargine (pre-pro-insulin glargine) | Yield (pre-pro-insulin glargine) | desArg (pre-pro-insulin glargine) | desThr (pre-pro-insulin glargine)
1 | B1 | the concentration of insulin glargine is decreased over time | yes | 62.1% | 53.6 area % | 65% | 19.1 area % | 5.2 area %
2 | B2 |  | yes | >90% | 87.6 area % | > 90% | < 0.5 area % | 1.5 area %
3 | B3 |  | yes | >90% | 82.8 area % | > 90% | < 0.5 area % | 1.9 area %
4 | B4 |  | yes | >90% | 82.6 area % | > 80% | < 0.5 area % | 1.9 area %
5 | B5 |  | yes | >90% | 85.2 area % | > 90% | 0.6 area % | 1 area %
6 | B6 |  | yes | >90% | 81 area % | > 80% | < 0.5 area % | 3.3 area %
7 | B7 |  | yes | >90% | 80.4 area % | > 80% | < 0.5 area % | 2.8 area %
8 | B8 |  | yes | >90% | 84.5 area % | > 90% | < 0.5 area % | 2.4 area %
9 | B9 |  | yes | >90% | 82.3 area % | > 80% | < 0.5 area % | 2.8 area %
10 | B10 |  | yes | >90% | 86.4 area % | > 90% | < 0.5 area % | 2.9 area %
